Experiments:
[1] = molecular target: T1, human guanylyl cyclase C (GCC), full length (human), P25092; assay: whole cell binding of radiolabeled ST-toxin, T84 cells (endogenous GCC)
[2] = molecular target: human GCC, full length with myc tag (293-GCC#2 cells) (human), P25092; assay: whole cell binding of radiolabeled ST-toxin, 293-GCC cells
[3] = molecular target: T1, human guanylyl cyclase C (GCC), full …; assay: whole cell binding of radiolabeled ST-toxin, HT-29-GCC#2/#5 cells

T1 sequence (P25092 24-1073 limits assumed): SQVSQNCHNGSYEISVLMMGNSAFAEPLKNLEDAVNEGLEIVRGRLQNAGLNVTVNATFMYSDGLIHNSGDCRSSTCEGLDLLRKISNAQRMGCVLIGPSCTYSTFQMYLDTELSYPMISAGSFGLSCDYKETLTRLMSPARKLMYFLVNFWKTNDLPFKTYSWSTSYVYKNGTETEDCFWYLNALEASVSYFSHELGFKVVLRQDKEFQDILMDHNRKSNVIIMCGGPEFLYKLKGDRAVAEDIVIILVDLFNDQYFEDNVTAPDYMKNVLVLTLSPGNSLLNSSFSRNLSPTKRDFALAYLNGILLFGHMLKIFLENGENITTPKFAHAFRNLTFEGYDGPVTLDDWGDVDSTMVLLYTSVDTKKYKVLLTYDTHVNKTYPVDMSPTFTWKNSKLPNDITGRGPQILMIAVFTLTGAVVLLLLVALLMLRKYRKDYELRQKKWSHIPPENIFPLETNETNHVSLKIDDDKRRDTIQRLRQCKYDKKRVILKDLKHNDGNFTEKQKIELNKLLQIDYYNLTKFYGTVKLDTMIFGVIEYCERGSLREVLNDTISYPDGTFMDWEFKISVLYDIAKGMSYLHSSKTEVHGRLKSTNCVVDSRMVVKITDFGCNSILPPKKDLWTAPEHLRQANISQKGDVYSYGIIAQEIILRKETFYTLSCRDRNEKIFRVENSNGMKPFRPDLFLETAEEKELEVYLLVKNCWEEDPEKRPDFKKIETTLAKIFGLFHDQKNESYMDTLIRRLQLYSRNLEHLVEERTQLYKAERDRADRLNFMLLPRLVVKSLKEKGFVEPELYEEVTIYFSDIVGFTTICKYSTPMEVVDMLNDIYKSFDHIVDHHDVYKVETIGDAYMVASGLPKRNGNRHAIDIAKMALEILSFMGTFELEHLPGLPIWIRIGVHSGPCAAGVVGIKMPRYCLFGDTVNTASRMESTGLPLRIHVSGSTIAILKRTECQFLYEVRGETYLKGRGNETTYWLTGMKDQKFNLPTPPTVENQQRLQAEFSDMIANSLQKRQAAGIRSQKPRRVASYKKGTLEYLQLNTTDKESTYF
Sequence of human GCC, full length with myc tag (293-GCC#2 cells) (human), P25092 (P25092 24-1073): as the sequence (P25092 24-1073 limits assumed) above

Binder: NTFYCCELCCNPACAGCY (modifications not checked) [heat-stable enterotoxin (ST) peptide]
- Whole cell binding assay (receptor/cell) (receptor/cell) [1]: 300000
- Whole cell binding assay (receptor/cell) (receptor/cell) [2]: 600000
- Whole cell binding assay (receptor/cell) (receptor/cell) [3]: 100000
